In this assay the target is Recombinant MRE11-RAD50-NBS1 (MRN) complex (human | , UniProt P49959 1-708; Q92878 1-1312; O60934 1-754). In words: co-IP.
Chain of Recombinant MRE11-RAD50-NBS1 (MRN) complex (P49959 whole entry, chain 1 of 3): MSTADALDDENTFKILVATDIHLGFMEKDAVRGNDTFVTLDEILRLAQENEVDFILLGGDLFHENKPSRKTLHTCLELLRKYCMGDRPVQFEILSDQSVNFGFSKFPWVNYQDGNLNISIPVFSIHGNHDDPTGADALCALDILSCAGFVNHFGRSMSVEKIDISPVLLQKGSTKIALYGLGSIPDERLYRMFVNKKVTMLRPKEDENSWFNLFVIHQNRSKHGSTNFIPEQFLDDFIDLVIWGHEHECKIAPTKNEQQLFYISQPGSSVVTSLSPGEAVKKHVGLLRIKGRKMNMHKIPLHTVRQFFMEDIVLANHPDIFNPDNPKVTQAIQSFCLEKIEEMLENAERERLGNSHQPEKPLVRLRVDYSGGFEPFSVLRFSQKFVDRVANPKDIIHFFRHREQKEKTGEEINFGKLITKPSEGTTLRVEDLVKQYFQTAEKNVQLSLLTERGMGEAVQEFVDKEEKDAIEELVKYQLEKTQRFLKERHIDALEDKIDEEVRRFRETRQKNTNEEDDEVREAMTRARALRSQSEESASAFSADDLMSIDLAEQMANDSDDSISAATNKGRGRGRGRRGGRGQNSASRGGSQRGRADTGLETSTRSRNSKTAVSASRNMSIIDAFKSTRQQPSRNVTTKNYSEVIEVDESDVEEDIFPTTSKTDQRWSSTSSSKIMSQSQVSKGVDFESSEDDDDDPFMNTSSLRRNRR
Chain of Recombinant MRE11-RAD50-NBS1 (MRN) complex (Q92878 whole entry, chain 2 of 3): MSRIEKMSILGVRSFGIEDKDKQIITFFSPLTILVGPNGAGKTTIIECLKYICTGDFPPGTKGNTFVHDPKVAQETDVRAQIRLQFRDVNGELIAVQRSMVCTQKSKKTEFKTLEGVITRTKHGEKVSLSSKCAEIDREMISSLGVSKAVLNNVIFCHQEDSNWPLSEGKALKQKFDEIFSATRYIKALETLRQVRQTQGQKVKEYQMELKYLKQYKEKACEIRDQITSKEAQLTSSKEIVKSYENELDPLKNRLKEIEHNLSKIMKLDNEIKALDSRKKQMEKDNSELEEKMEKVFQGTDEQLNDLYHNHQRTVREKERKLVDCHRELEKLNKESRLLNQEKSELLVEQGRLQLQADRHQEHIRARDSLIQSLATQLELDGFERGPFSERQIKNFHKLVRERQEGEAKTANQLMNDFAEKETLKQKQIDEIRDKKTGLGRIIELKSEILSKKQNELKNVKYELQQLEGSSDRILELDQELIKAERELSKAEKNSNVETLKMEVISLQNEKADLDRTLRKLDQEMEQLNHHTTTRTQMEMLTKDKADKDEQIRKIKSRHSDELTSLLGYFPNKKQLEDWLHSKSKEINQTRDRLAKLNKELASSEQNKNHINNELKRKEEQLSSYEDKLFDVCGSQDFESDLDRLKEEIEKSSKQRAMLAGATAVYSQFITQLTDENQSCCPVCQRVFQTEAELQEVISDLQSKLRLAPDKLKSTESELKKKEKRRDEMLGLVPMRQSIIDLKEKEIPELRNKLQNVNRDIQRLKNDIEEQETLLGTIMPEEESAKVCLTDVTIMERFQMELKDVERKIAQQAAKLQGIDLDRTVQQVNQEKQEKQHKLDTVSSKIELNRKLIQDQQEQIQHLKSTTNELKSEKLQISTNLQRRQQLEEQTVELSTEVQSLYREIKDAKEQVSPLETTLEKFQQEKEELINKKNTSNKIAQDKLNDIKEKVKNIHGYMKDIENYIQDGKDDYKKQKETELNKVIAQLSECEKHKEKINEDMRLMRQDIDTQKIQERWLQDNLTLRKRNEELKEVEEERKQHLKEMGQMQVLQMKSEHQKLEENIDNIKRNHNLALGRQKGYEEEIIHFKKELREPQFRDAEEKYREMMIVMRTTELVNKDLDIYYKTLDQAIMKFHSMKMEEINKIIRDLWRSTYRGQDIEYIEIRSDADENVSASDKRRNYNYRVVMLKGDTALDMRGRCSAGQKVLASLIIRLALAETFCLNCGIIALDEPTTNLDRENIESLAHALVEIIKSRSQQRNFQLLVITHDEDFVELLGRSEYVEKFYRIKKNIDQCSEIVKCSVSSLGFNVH
Chain of Recombinant MRE11-RAD50-NBS1 (MRN) complex (O60934 whole entry, chain 3 of 3): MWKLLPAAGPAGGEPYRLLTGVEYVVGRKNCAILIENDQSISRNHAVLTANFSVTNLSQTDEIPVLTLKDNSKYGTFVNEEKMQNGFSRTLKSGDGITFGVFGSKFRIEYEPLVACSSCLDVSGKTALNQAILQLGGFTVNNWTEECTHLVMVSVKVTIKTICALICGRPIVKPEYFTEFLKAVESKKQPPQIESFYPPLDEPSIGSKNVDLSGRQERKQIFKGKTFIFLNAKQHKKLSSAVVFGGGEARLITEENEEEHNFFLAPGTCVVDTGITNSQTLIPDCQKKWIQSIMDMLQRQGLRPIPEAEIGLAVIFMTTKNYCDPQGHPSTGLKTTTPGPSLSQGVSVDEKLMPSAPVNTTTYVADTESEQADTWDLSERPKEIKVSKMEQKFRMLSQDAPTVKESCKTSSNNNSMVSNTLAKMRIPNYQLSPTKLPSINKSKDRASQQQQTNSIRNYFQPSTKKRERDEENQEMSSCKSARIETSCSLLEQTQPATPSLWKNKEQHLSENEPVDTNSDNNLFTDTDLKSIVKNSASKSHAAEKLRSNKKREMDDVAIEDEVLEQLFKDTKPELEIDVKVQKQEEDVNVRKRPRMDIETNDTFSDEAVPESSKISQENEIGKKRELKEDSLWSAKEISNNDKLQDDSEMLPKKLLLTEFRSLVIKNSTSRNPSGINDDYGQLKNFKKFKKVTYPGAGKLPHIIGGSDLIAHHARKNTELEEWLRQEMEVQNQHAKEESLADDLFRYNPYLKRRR

B1: Recombinant FLAG-GST-CtIP-6H (natural protein, human, UniProt Q99708 1-897, looked up)
chain: MNISGSSCGSPNSADTSSDFKDLWTKLKECHDREVQGLQVKVTKLKQERILDAQRLEEFFTKNQQLREQQKVLHETIKVLEDRLRAGLCDRCAVTEEHMRKKQQEFENIRQQNLKLITELMNERNTLQEENKKLSEQLQQKIENDQQHQAAELECEEDVIPDSPITAFSFSGVNRLRRKENPHVRYIEQTHTKLEHSVCANEMRKVSKSSTHPQHNPNENEILVADTYDQSQSPMAKAHGTSSYTPDKSSFNLATVVAETLGLGVQEESETQGPMSPLGDELYHCLEGNHKKQPFEESTRNTEDSLRFSDSTSKTPPQEELPTRVSSPVFGATSSIKSGLDLNTSLSPSLLQPGKKKHLKTLPFSNTCISRLEKTRSKSEDSALFTHHSLGSEVNKIIIQSSNKQILINKNISESLGEQNRTEYGKDSNTDKHLEPLKSLGGRTSKRKKTEEESEHEVSCPQASFDKENAFPFPMDNQFSMNGDCVMDKPLDLSDRFSAIQRQEKSQGSETSKNKFRQVTLYEALKTIPKGFSSSRKASDGNCTLPKDSPGEPCSQECIILQPLNKCSPDNKPSLQIKEENAVFKIPLRPRESLETENVLDDIKSAGSHEPIKIQTRSDHGGCELASVLQLNPCRTGKIKSLQNNQDVSFENIQWSIDPGADLSQYKMDVTVIDTKDGSQSKLGGETVDMDCTLVSETVLLKMKKQEQKGEKSSNEERKMNDSLEDMFDRTTHEEYESCLADSFSQAADEEEELSTATKKLHTHGDKQDKVKQKAFVEPYFKGDERETSLQNFPHIEVVRKKEERRKLLGHTCKECEIYYADMPAEEREKKLASCSRHRFRYIPPNTPENFWEVGFPSTQTCMERGYIKEDLDPCPRPKRRQPYNAIFSPKGKEQKT
Turning to B1, the binding result is “binds”.

Values taken from PMC2409435 (Nature, 2007).
